# Measurements: the supplement of paper PMC9170038
# Test system: MS2 coat protein
# Assay: apparent KD of MS2 coat protein; designed switch direction (-1 OFF switch, 1 ON switch): 1; higher = weaker reporter binding
# Method in brief: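 SNAP-549-labelled MS2 coat protein was titrated, doubling from 0.7 or 1.5 nM to 3 µM, over designed RNA switches transcribed on Illumina chips by stalled E. coli RNA polymerase. Runs were done without input, with 200 uM small-molecule ligand, or with an oligonucleotide input. Apparent KD is the per-design median over clusters of curve-fitted normalised fluorescence.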
# [1] = Eterna round: R95, input ligand: FMN 200 uM
# [2] = Eterna round: R95, input ligand: microRNA oligo, concentration not stated
# [3] = Eterna round: R95, input ligand: none
# [4] = input ligand: microRNA oligo, concentration not stated
Sequence,apparent KD of MS2 coat protein [1] [nM],apparent KD of MS2 coat protein [2] [nM],apparent KD of MS2 coat protein [3] [nM],apparent KD of MS2 coat protein (input ligand: FMN 200 uM) [nM],apparent KD of MS2 coat protein [4] [nM],apparent KD of MS2 coat protein (input ligand: none) [nM]
AACAAUCUAUCUGAGGAUAUCAUGAAAUAAACAUGAGGAUCACCCAUGUGCAGGAAAACUGCUUAUGAGAAGGCAGAUAGAUUGA [salish99_ss2_r3_047] (puzzle: Same State 2),10.3,12.6,12.2,,,
AACAAUCUAUCUGAGGAUAUCAUGAAAUAAACAUGAGGAUCACCCAUGUGCAGGUAAACUGCAUAUGAGAAGGCAGAUAGAUUGA [salish99_ss2_r3_040] (puzzle: Same State 2),60.1,314,571,,,
"AACAGUCGACGAGGAUAUGGACGGACAGGUUUGCCUGUGCGGCUCACAUGAGGAUCACCCAUGUUCUAGAAGGCGUCACUGUGA [Matidia] (Eterna round: R96, puzzle: Same State NG 2)",,,,15.5,79.2,80.5
"AACAGUCGGCGAGGAUAUGGACGUACGAACUUACCCGUGCGGCUCACAUGAGGAUCACCCAUGUUCUAGAAGGCGCCACUGAAA [Atbeon] (Eterna round: R96, puzzle: Same State NG 2)",,,,12.2,63.4,88.8
"AACAUGAGGAUCACCCAUGUGAAAUACUGAGGCAGCUCAGGGAAGGAUAUGGUUGACACCCUCGACCAGAAGGUCCAAAAUAAA [Aquorxe] (Eterna round: R96, puzzle: Same State NG 3)",,,,80.8,108,143
"AACCCAGUGGAAGGAUAUGGCACCUUAUUGGUGCCAGAAGGUCCUAACAUGAGGAUCACCCAUGUGGGCCGGUCGAAAGACCGG [Fiskers NG1ss - 10] (Eterna round: R96, puzzle: Same State NG 1)",,,,101,242,338
"AACCCGAAGGGAGGAUAUGGCACCUUAUUGGUGCCAGAAGGUCCUCACAUGAGGAUCACCCAUGUGGGCCGGUCGAAAGACCGG [Fiskers NG1ss - 12] (Eterna round: R96, puzzle: Same State NG 1)",,,,532,407,500
"AACGGUGCUUGAAAUAGUCACAUGAGGAUCACCCAUGUUAGGCAGGAUAUGUGUCUAAGACGACCGCAGAAGGGCUCAAGCGAU [Eternabot solution 41] (Eterna round: R96, puzzle: Same State NG 3)",,,,49.5,26.9,34.6
"AAGAAAGACGCAGGAUAUCAGUGCAGACCGCACUGAGAAGGGUGAGACAUGAGGAUCACCCAUGUAACACGACAAAACGUCGUG [Anritiat] (Eterna round: R96, puzzle: Same State NG 1)",,,,111,118,13.9
"AAGAAAUCCGCAGGAUAUCCUAAGCCGGGCUUAGGAGAAGGGUGGCCACAUGAGGAUCACCCAUGUAAAGGCUGAAUCACAGCC [Disois] (Eterna round: R96, puzzle: Same State NG 1)",,,,662,268,491
AAGAAUCUAUCUCAGGAUAUCAUGUCAAAGACAUGAGGAUCACCCAUGUACCAGGAAACUGGUUAUGAGAAGGGAGAUAGAUUCU [Mat - Same State 2 - Mod - D32] (puzzle: Same State 2),99.4,30.6,282,,,
AAUAAUUUACAUGAGGAUCACCCAUGUGGUAAACAUGCUUUUUGCUCGUCUUAUGGUUUUUUUUUUUUUUUUUUUUU [viviankchen1] (puzzle: Sensor for hsa-mir-208a version 2),91,49.6,130,,,
AAUGUCUCACAUGAGGAUCACCCAUGUCUUUGGAUGAAGCUUUUUGCUCGUCUUCAUUUUGCUCGUCUUACCCAUGU [SBY_1] (puzzle: Sensor for hsa-mir-208a version 2),44.8,21,52.7,,,
"AAUUAAGAUCAAGGAUAUCACGUCGAUUAGACGUGAGAAGGUGAUAAUUACAUGAGGAUCACCCAUGUAUAACAUGAAUUAAUU [SSNG1/9-B2] (Eterna round: R96, puzzle: Same State NG 1)",,,,31.8,23.9,33.5
AAUUAUUAACAUGAGGAUCACCCAUGUAUUUUUUGCUCGUCAUGUAUUAUUAUUAUUAUUAUUAUUAUUAUUAUUAA [my first RNA] (puzzle: Sensor for hsa-mir-208a version 2),26.8,17.1,37.8,,,
AAUUUUAAACAUGAGGAUCACCCAUGUGUUAUAUAAGCAAAUAAAUAAAUAAAUAAAUAAAUAAAUAAAUAAAUAAA [RNA Sequence] (puzzle: Sensor for hsa-mir-208a version 2),34.1,40.2,44.5,,,
ACAAGACAUGAGGAUCACCCAUGUAUAAAUUACACAGGAUAUCGGUGGGCCGCGCCUACACGAGAAGGGUGACUUC [Gere] (puzzle: Same State 1),77,33.4,35.5,,,
ACAAGCUUUUCUGUAGUGAAAGGUGGGAUACAUGAGGAUCACCCAUGUAUUGUUGUCAAUAUUUGUCCUCGUCUUAU [JR_SHM208A_Sub086] (puzzle: Sensor for hsa-mir-208a),31.4,11,31.1,,,
"ACAUGAAAUACAGGAUAUUUUGUACCUACAUGUGACAUGAGGAUCACCCAUGUGGUAAGUAUAAGAGAGAAGGGUAAGAUAUGU [Equivalence 4 - Jieux - Same State NG 2] (Eterna round: R96, puzzle: Same State NG 2)",,,,50.1,43.8,66.4
"ACAUGAAAUGCAGGAUAUUUUGUACCUACAUGUGACAUGAGGAUCACCCAUGUGGUAAGUAUAAGAGAGAAGGGUAAGAUAUGU [Equivalence 3 - Jieux - Same State NG 2] (Eterna round: R96, puzzle: Same State NG 2)",,,,60.6,48.3,72.3
"ACAUGAAAUUCAGGAUAUUUUGUACCUACAUGUGACAUGAGGAUCACCCAUGUGGUAAGUAUAAGAGAGAAGGGAAAGAUAUGU [Equivalence 5 - Jieux - Same State NG 2] (Eterna round: R96, puzzle: Same State NG 2)",,,,29.1,29.9,38.5
"ACAUGAGAGAUAGGAUAUCUUGUACCUACAUGUGACAUGAGGAUCACCCAUGUGGUAAGUAUGAGGGAGAAGGAUCAGAUAUGU [Equivalence 42 - Jieux - Same State NG 2] (Eterna round: R96, puzzle: Same State NG 2)",,,,29.6,26.4,45.2
"ACAUGAGAGUGAGGAUAUAUUGUACCUACAUGUGACAUGAGGAUCACCCAUGUGGUAAGUAUGACAUAGAAGGCACAGAUAUGU [Equivalance 80 - Jieux - Same State NG 2] (Eterna round: R96, puzzle: Same State NG 2)",,,,35.6,45.2,70.9
"ACAUGAGAGUGAGGAUAUCAUGUACCUACAUGUGACAUGAGGAUCACCCAUGUGGUAAGUAUGACUGAGAAGGCACAGAUAUGU [Equivalance 90 - Jieux - Same State NG 2] (Eterna round: R96, puzzle: Same State NG 2)",,,,70.3,267,889
"ACAUGAGGGUGAGGAUAUUGGAACUCACCUGACAUGAGGAUCACCCAUGUUCAAUGAGGAUCACCCAAGAAGGCACGUUGUGGA [Same State NG2 S3] (Eterna round: R96, puzzle: Same State NG 2)",,,,29.2,24,36.2
"ACCCAAAAUACAUGGGAACAAGCUUUUUAACAUGAGGAUCACCCAUGUACUCGUCUUAUAAGCAGUCGAAAGACUGC [hsa-mir-208a sensor: 113] (Eterna round: R96, puzzle: Sensor for hsa-mir-208a)",,,,563,14.6,518
